This passage reports PLA foci per nucleus (median) (foci per nucleus) results from publication PMC9913075.

The experiment addresses Taspase1, endogenous in HeLa cells (human (endogenous in HeLa)) (UniProt Q9H6P5). The experiment is described as follows: proximity ligation; Duolink PLA on fixed HeLa cells with rabbit anti-Topoisomerase IIα/β and mouse anti-Taspase1; foci per nucleus counted.
Sequence of UniProt Q9H6P5 (Q9H6P5 whole entry): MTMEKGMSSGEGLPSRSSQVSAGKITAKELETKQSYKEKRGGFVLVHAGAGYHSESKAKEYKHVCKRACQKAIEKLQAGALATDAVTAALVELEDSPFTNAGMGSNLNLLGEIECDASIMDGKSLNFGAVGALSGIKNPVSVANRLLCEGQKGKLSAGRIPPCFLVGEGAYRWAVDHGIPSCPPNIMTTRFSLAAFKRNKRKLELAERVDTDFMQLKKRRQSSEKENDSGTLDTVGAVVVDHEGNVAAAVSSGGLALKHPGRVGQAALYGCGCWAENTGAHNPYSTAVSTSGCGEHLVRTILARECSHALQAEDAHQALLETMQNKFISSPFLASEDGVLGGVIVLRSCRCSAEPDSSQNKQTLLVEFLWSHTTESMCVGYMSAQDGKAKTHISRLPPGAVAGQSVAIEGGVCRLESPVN

Substance “Topo IIα/β (endogenous, HeLa cells, detected with an antibody that recognises both isoforms)” yielded a PLA foci per nucleus (median) (foci per nucleus) of 45.
